# Assay results reported in US7658917 (PRAECIS PHARMACEUTICALS, dated 2010).
# Read-outs that look alike come from different tables or passages of the source. Numbered stars: 1 amine (or outer) side, 2 acyl side, 3 side chain; on linkers, the order of the positions; unused ones are H or OH. Square brackets hold non-standard residues; d marks the D form. Ends that are not written are not given here. * marks the point of attachment. Cholyl = C[C@H](CCC(=O)*)[C@H]1CC[C@H]2[C@@H]3[C@H](O)C[C@@H]4C[C@H](O)CC[C@]4(C)[C@H]3C[C@H](O)[C@]12C; Deoxycholoyl = C[C@H](CCC(=O)*)[C@H]1CC[C@H]2[C@@H]3CC[C@@H]4C[C@H](O)CC[C@]4(C)[C@H]3C[C@H](O)[C@]12C; Lithocholoyl = C[C@H](CCC(=O)*)[C@H]1CC[C@H]2[C@@H]3CC[C@@H]4C[C@H](O)CC[C@]4(C)[C@H]3CC[C@]12C; Adp = aminoethyldibenzofuranylpropanoic acid, O=C(CCc1cccc2c1oc1c(CCN[*:1])cccc12)[*:2]; iminobiotinyl = N=C1N[C@H]2[C@H](CS[C@H]2CCCCC(=O)*)N1; Tyr(3-I) = N[C@@H](Cc1ccc(O)c(I)c1)C(=O)O; FICO = 5-(and 6-)-carboxyfluoresceinyl; NMeL = CN[C@@H](CC(C)C)C(=O)O; NMeV = CN[C@H](C(=O)O)C(C)C; NANA = N-acetyl neuraminyl; Boc = CC(C)(C)OC(=O)*
# B1: cholyl-Aβ16-19-amide (PPI-321 as printed in Table IV) (peptide)
# peptide: Cholyl-KLVF-NH2
# SMILES: CC(C)C[C@H](NC(=O)[C@H](CCCCN)NC(=O)CC[C@@H](C)[C@H]1CC[C@H]2[C@@H]3[C@H](O)C[C@@H]4C[C@H](O)CC[C@]4(C)[C@H]3C[C@H](O)[C@]12C)C(=O)N[C@H](C(=O)N[C@@H](Cc1ccccc1)C(N)=O)C(C)C
# B2: CA-LVFAA-oh (peptide)
# peptide: Cholyl-LVFAA-OH
# SMILES: CC(C)C[C@H](NC(=O)CC[C@@H](C)[C@H]1CC[C@H]2[C@@H]3[C@H](O)C[C@@H]4C[C@H](O)CC[C@]4(C)[C@H]3C[C@H](O)[C@]12C)C(=O)N[C@H](C(=O)N[C@@H](Cc1ccccc1)C(=O)N[C@@H](C)C(=O)N[C@@H](C)C(=O)O)C(C)C
# B3: CA-AVAFA-oh (peptide)
# peptide: Cholyl-AVAFA-OH
# SMILES: CC(C)[C@H](NC(=O)[C@H](C)NC(=O)CC[C@@H](C)[C@H]1CC[C@H]2[C@@H]3[C@H](O)C[C@@H]4C[C@H](O)CC[C@]4(C)[C@H]3C[C@H](O)[C@]12C)C(=O)N[C@@H](C)C(=O)N[C@@H](Cc1ccccc1)C(=O)N[C@@H](C)C(=O)O
# B4: h-DDIII(N-Me-Val)DLL(Adp)-HQKLVFF-oh (peptide)
# peptide: H-DDIII[NMeV]DLL[Adp]HQKLVFF-OH
# SMILES: CC[C@H](C)[C@H](NC(=O)[C@H](CC(=O)O)NC(=O)[C@@H](N)CC(=O)O)C(=O)N[C@H](C(=O)N[C@H](C(=O)N(C)[C@H](C(=O)N[C@@H](CC(=O)O)C(=O)N[C@@H](CC(C)C)C(=O)N[C@@H](CC(C)C)C(=O)NCCc1cccc2c1oc1c(CCC(=O)N[C@@H](Cc3c[nH]cn3)C(=O)N[C@@H](CCC(N)=O)C(=O)N[C@@H](CCCCN)C(=O)N[C@@H](CC(C)C)C(=O)N[C@H](C(=O)N[C@@H](Cc3ccccc3)C(=O)N[C@@H](Cc3ccccc3)C(=O)O)C(C)C)cccc12)C(C)C)[C@@H](C)CC)[C@@H](C)CC
# B5: h-DDII(N-Me-Leu)VEH(Adp)-LKLVFF-oh (peptide)
# peptide: H-DDII[NMeL]VEH[Adp]LKLVFF-OH
# SMILES: CC[C@H](C)[C@H](NC(=O)[C@H](CC(=O)O)NC(=O)[C@@H](N)CC(=O)O)C(=O)N[C@H](C(=O)N(C)[C@@H](CC(C)C)C(=O)N[C@H](C(=O)N[C@@H](CCC(=O)O)C(=O)N[C@@H](Cc1c[nH]cn1)C(=O)NCCc1cccc2c1oc1c(CCC(=O)N[C@@H](CC(C)C)C(=O)N[C@@H](CCCCN)C(=O)N[C@@H](CC(C)C)C(=O)N[C@H](C(=O)N[C@@H](Cc3ccccc3)C(=O)N[C@@H](Cc3ccccc3)C(=O)O)C(C)C)cccc12)C(C)C)[C@@H](C)CC
# B6: CA-FFV-oh (peptide)
# peptide: Cholyl-Phe-Phe-Val-OH
# SMILES: CC(C)[C@H](NC(=O)[C@H](Cc1ccccc1)NC(=O)[C@H](Cc1ccccc1)NC(=O)CC[C@@H](C)[C@H]1CC[C@H]2[C@@H]3[C@H](O)C[C@@H]4C[C@H](O)CC[C@]4(C)[C@H]3C[C@H](O)[C@]12C)C(=O)O
# B7: CA-FFVL-oh (peptide)
# peptide: Cholyl-FFVL-OH
# SMILES: CC(C)C[C@H](NC(=O)[C@@H](NC(=O)[C@H](Cc1ccccc1)NC(=O)[C@H](Cc1ccccc1)NC(=O)CC[C@@H](C)[C@H]1CC[C@H]2[C@@H]3[C@H](O)C[C@@H]4C[C@H](O)CC[C@]4(C)[C@H]3C[C@H](O)[C@]12C)C(C)C)C(=O)O
# B8: CA-GFF-oh (peptide)
# peptide: Cholyl-Gly-Phe-Phe-OH
# SMILES: C[C@H](CCC(=O)NCC(=O)N[C@@H](Cc1ccccc1)C(=O)N[C@@H](Cc1ccccc1)C(=O)O)[C@H]1CC[C@H]2[C@@H]3[C@H](O)C[C@@H]4C[C@H](O)CC[C@]4(C)[C@H]3C[C@H](O)[C@]12C
# What was measured:
# Assay in all cases: cell-based or functional assay
# [1] = target: natural β-amyloid peptide β-AP1-40 (human)
# [2] = target: natural β-amyloid peptide β-AP1-40 (human); remark: listed apart in the source
# [3] = target: natural β-amyloid peptide β-AP1-40 (human); remark: listed apart in the source
# natural β-amyloid peptide β-AP1-40 (human), sequence (peptide, as listed by the source): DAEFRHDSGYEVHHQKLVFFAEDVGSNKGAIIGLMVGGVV
Binder,% Inhibition of Plateau; nucleation assay; 100 mole % [2] [%],Fold Increase in Lag Time; nucleation assay; 100 mole % [2] [fold],% Inucl'n; nucleation assay; 100 mole % [3] [%],ΔLag; nucleation assay; 100 mole % [3] [ratio],further results
B1,–,–,–,–,% Inhibition of Plateau; nucleation assay; 100 mole % [1]: ~0%; Fold Increase in Lag Time; nucleation assay; 100 mole % [1]: 1.2 fold
Cholyl-DAEFRHDSGYEVHHQ [cholyl-Aβ1-15],100,> 4.5,–,–,–
Cholyl-EVHHQKLVFFAEDVG [cholyl-Aβ11-25],~0,1.5,–,–,–
B2,–,–,40,1.6,–
Cholyl-LVF[Tyr(3-I)]A-OH [CA-LVF(IY)A-oh],–,–,95,> 5,–
B3,–,–,-15,1,–
B4,–,–,-75,1.4,% Iext'n; seeded extension assay; 25 mole % [3]: 0%
B5,–,–,-29,1.8,% Iext'n; seeded extension assay; 25 mole % [3]: 7%
Cholyl-KLVFFAEDVGSNKGA [cholyl-Aβ16-30],100,> 4.5,–,–,–
Deoxycholoyl-LVFFA-OH [DeoxyCA-LVFFA-oh],–,–,-114,3,% Iext'n; seeded extension assay; 25 mole % [3]: 82%
Lithocholoyl-LVFFA-OH [LithoCA-LVFFA-oh],–,–,-229,2.8,% Iext'n; seeded extension assay; 25 mole % [3]: 0%
B6,–,–,-33,2.2,% Iext'n; seeded extension assay; 25 mole % [3]: 7%
B7,–,–,33,4.1,% Iext'n; seeded extension assay; 25 mole % [3]: 75%
Cholyl-[dL][dV][dF][dF][dA]-OH [CA-LVFFA-oh (all D amino acids)],–,–,27,2.8,–
Boc-LVFFA-OH [t-Boc-LVFFA-oh],–,–,-5,3,–
Cholyl-AEDVGSNKGAIIGLM [cholyl-Aβ21-35],51,1.6,–,–,–
B8,–,–,0,1,–

Binder,% Inhibition of Plateau; nucleation assay; 100 mole % [2] [%],Fold Increase in Lag Time; nucleation assay; 100 mole % [2] [fold],% Inucl'n; nucleation assay; 100 mole % [3] [%],ΔLag; nucleation assay; 100 mole % [3] [ratio],further results
Cholyl-SNKGAIIGLMVGGVV [cholyl-Aβ26-40],87,> 4.5,–,–,–
{NANA}-DAEFRHDSGYEVHHQ [NANA-Aβ1-15],~0,~1,–,–,–
{NANA}-HDSGYEVHHQKLVFF [NANA-Aβ6-20],64,1.3,–,–,–
{NANA}-KLVFFAEDVGSNKGA [NANA-Aβ16-30],~0,~1,–,–,–
{NANA}-AEDVGSNKGAIIGLM [NANA-Aβ21-35],53,~1,–,–,–
{NANA}-SNKGAIIGLMVGGVV [NANA-Aβ26-40],~0,1.3,–,–,–
iminobiotinyl-DAEFRHDSGYEVHHQ [iminobiotinyl-Aβ1-15],~0,1.2,–,–,–
iminobiotinyl-HDSGYEVHHQKLVFF [iminobiotinyl-Aβ6-20],44,1.6,–,–,–
iminobiotinyl-EVHHQKLVFFAEDVG [iminobiotinyl-Aβ11-25],40,1.2,–,–,–
iminobiotinyl-KLVFFAEDVGSNKGA [iminobiotinyl-Aβ16-30],55,1.2,–,–,–
iminobiotinyl-AEDVGSNKGAIIGLM [iminobiotinyl-Aβ21-35],66,~1,–,–,–
iminobiotinyl-SNKGAIIGLMVGGVV [iminobiotinyl-Aβ26-40],~0,2.3,–,–,–
{FICO}-DAEFRHDSGYEVHHQ [FICO-Aβ1-15],30,~1,–,–,–
{FICO}-HDSGYEVHHQKLVFF [FICO-Aβ6-20],~0,1.9,–,–,–
{FICO}-KLVFFAEDVGSNKGA [FICO-Aβ16-30],59,1.6,–,–,–
{FICO}-AEDVGSNKGAIIGLM [FICO-Aβ21-35],25,1.2,–,–,–
